The values that follow come from paper PMC4423210, “Ubiquitination of the Dishevelled DIX domain blocks its head-to-tail polymerization” (Nature Communications, 2015).

Series [1] deals with the molecule itself. The experiment in a line: crystal structure; hDvl2 DIX-Y27D, 40% PEG400, 0.1 M Tris pH 8.5, 0.2 M LiSO4, 19 °C; helical filament in the crystal.
Series [2] deals with the molecule itself. Put plainly: SEC-MALS; loading concentration 50 μM (reduced ∼10x during SEC); Superdex-75 HR10/300, 20 mM Tris pH 7.4, 200 mM NaCl, 0.01% NaN3; self-association, apparent molecularity.
Series [3] concerns the molecule itself. The experiment in a line: SEC-MALS; loading concentration 10 μM (reduced ∼10x during SEC); Superdex-75 HR10/300, 20 mM Tris pH 7.4, 200 mM NaCl, 0.01% NaN3; self-association, apparent molecularity.
Series [4] deals with the molecule itself. Put plainly: SEC-MALS; highest loading concentration (235 μM DIX, ∼160 μM DIX54-Ub or DIX58-Ub; reduced ∼10x during SEC); Superdex-75 HR10/300, 20 mM Tris pH 7.4, 200 mM NaCl, 0.01% NaN3; self-association, apparent molecularity.

B1: hDvl2 DIX domain bearing the polymerization-deficient mutation M4 (Y27D) (domain or fragment, human)
chain: GETKVIYHLDEEETPDLVKIPVPAERITLGDFKSVLQRPAGAKYFFKSMDQDFGVVKEEISDDNARLPCFNGRVVSWLVSSDNPQPEMAPPVHEPR
notes: DIX domain of human Dishevelled-2 (hDvl2) with Y27D; Crystallised at 50 mg/ml; forms a helical head-to-tail filament in the crystal; also called hDvl2 DIX-Y27D; source: E. coli BL21-CodonPlus(DE3)-RIL, purified (Ni-NTA, TEV, gel filtration, anion exchange); not shown: 6xHis, N-terminal, cleaved
Consider B1, for which the binding result in series [1] is “binds”.

B2: DIX domain of human Dvl2 (hDvl2), unmodified (domain or fragment, UniProt O14641 11-93, looked up)
chain: VGETKVIYHLDEEETPYLVKIPVPAERITLGDFKSVLQRPAGAKYFFKSMDQDFGVVKEEISDDNARLPCFNGRVVSWLVSSD
notes: DIX domain of human Dishevelled-2 (hDvl2); Codon-optimised synthetic gene in pCDF-PylT; PDB 4WIP holds the Y27D mutant of the hDvl2 DIX domain; also called unmodified DIX; hDvl2 DIX domain; not shown: His6, N-terminal, cleaved
On to B2, for which the “stoichiometry N” value is 3 in series [2], 2 in series [3] and above 84 monomers in series [4].
